Experiments:
[1] = target: T1, human factor B (purified, Complement Technology A135) (human, UniProt P00751 26-764); experiment: BLI (Octet), biotinylated factor B on streptavidin biosensor, Fab at 12.5 nM
T1 construct: also called fB; human complement factor B
Method: (§1) Binding kinetics of TA106 and TA106 S33A Fab (CLS016) to Factor B were analyzed using a FortéBio® Octet® biosensor (FortéBio, Inc.) in a similar protocol as described previously. In one exemplary experiment, Factor B (Complement Technology) was biotinylated at a 1:10 ratio and coupled to a streptavidin biosensor at a concentration of 5 μg/mL for a loading time of 600 seconds. Biosensors were briefly dipped in 1×KB as a wash for 30 seconds. Associations with a titration series of Fab with a concentration range from 100 to 3 nM (diluted in 1×KB) were carried out for 600 seconds. Fabs were dissociated from the biosensor by immersing the biosensor in 1×KB during the 600 second dissociation phase. As depicted in FIGS. 19 and 20, both TA106 Fab and TA106-derivative S33A Fab (CLS016) bound to Factor B at various concentrations, resulting in nearly identical association and dissociation profiles. Kinetic assessments using partial local fit parameters yielded identical values for KD/kₐ/Kd at each concentration tested.

[2] = target: T1, human factor B (purified, Complement …); experiment: SPR (Biacore 3000), Fab captured on chip, soluble human factor B 3.1-100 nM
Excerpt: (§2) Binding kinetics of TA106 Fab and variant S33A Fab (CLS016) were further characterized using Surface Plasmon Resonance (SPR) technology. In one exemplary experiment, both Fabs were captured on chips of a Biacore 3000 analyzer and samples of human factor B of different concentrations were flowed as the antigen over the surface to model soluble human factor B binding, using protocols recommended by the manufacturer and described previously in the instant disclosure. […] In another exemplary experiment, the affinities of both Fabs were also measured by reversing the orientation of the previous experiment. Specifically, human factor B was directly coupled to one flow cell of a CM5 chip. The second flow cell was used as a blank reference with no coupled ligand. CLS016 or TA106 Fab was then flowed on both flow cells. Concentrations between 0.19 to 25 nM were run with duplicates. The surface was regenerated between each cycle.

[3] = target: T1, human factor B (purified, Complement …); experiment: SPR (Biacore), factor B coupled to the chip, free TA106 Fab 0.19-25 nM flowed; Chi2 1.58
Excerpt: as §2

[4] = target: T1, human factor B (purified, Complement …); experiment: SPR (Biacore), factor B directly bound to the chip at low coverage, TA106 Fab flowed over
Excerpt: The difference in the two Biacore data sets could be explained as either that the conformation of factor B changes when binding to the surface or that not all commercial factor B is active. This later Biacore experiment (with a fixed concentration of factor B bound to the chip) removed the factor B concentration from the calculation.

[5] = target: T1, human factor B (purified, Complement …); experiment: BLI (Octet), binding to factor B (summary table)
Method: as §1

[6] = target: T1, human factor B (purified, Complement …); experiment: cell-based or functional assay
[7] = target: T1, human factor B (purified, Complement …); experiment: BLI (Octet), biotinylated factor B on streptavidin biosensor, Fab at 6.25 nM
Method: as §1

[8] = target: T1, human factor B (purified, Complement …); experiment: BLI (Octet), biotinylated factor B on streptavidin biosensor, Fab at 50 nM
Method: as §1

[9] = target: T1, human factor B (purified, Complement …); experiment: SPR (Biacore 3000), Fab captured by human Fab binder on CM5 chip, soluble human factor B 3.1-200 nM; Fab captured on chip, soluble factor B
Excerpt: Binding kinetics of mAbs were further characterized using Biacore's Surface Plasmon Resonance (SPR) technology (GE Healthcare, Piscataway, N.J.). For a detailed description of SPR and its applications in affinity measurement, please see Karlsson and Larsson, Antibody Engineering: Methods and Protocols, Methods in Molecular Biology (2003), 248: 389-415. In one exemplary experiment, TA106 Fab and derivative mAbs were captured on chips of a Biacore 3000 analyzer and samples of human factor B of different concentrations were flowed as the antigen over the surface to model soluble human factor B binding, using protocols recommended by the manufacturer (e.g., in the product brochure #BR-9003-31). All these referenced publications are hereby incorporated by reference in their entirety. […] Fab TA106 (Xoma, Lot#TTA1007, 20 mg/mL) was then flowed over one flow cell, followed by injections of human factor B on both flow cells. Concentrations (factor B) between 3.1-200 nM were run. The surface was regenerated between each cycle. […] The affinities of mAbs, i.e., CLS011, CLS012, and CLS013, were determined using a similar capture approach. In one exemplary experiment, human anti-Fc antibody was amine coupled to two flow cells of a CM5 chip. Each of the TA106-originated mAbs was then flowed over one flow cell, followed by injecting human factor B (3.1-200 nM) on both flow cells. […]

[10] = target: T1, human factor B (purified, Complement …); experiment: SPR (Biacore), TA106 Fab captured on anti-Fab surface, soluble factor B 3.1-100 nM flowed; Chi2 0.206
Excerpt: as §2

[11] = target: T1, human factor B (purified, Complement …); experiment: BLI (Octet), biotinylated factor B on streptavidin biosensor, Fab at 25 nM
Method: as §1

T1 sequence (P00751 26-764): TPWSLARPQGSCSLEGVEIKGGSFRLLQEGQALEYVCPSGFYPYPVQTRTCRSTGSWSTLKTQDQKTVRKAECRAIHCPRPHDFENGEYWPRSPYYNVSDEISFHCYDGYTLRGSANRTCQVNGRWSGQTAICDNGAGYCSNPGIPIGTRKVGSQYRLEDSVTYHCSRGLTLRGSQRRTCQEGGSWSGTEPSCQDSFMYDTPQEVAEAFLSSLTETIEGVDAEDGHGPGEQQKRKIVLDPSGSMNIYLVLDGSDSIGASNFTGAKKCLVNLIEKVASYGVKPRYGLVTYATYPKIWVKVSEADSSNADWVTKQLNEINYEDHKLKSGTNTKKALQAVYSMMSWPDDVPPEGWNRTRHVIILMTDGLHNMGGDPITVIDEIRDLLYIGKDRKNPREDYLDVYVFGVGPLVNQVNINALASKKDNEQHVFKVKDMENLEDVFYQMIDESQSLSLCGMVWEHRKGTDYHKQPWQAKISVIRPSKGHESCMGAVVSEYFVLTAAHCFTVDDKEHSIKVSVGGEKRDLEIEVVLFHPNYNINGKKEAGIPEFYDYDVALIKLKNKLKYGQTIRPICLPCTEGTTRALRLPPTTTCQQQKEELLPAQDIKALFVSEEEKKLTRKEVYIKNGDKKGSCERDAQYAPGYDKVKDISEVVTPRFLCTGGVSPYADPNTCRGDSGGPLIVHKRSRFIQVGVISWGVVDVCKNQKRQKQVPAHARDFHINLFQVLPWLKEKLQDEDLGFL

B1: TA106 Fab (humaneered anti-factor B Fab, expressed in E. coli) (Fab, V domains shown)
VH: QVQLVQSGAEVKKPGASVKVSCKASGYSFTDYYMTWVRQAPGQGLEWMGWINPNSGGTKYAQKFQGRVTMTRDTSISTAYMELSRLRSDDTAVYYCARGYYANSAWFAYWGQGTLVTVSS
VL: DIVMTQSPDSLAVSLGERATINCKSSQSLLNSSTSKNYLAWYQQKPGQPPKLLIYWASTRESGVPDRFSGSGSGTDFTLTISSLQAEDVAVYYCKQVYNLPWTFGQGTKLEIKR
notes: Fab made in E. coli by Xoma, not glycosylated; also called Fab TA106; TA106 wild type Fab
With B1 the Kd [1] was 29.8 nM, the koff [1] was 0.00324 s⁻¹ and the kon [1] was 109000 M⁻¹ s⁻¹. For the same binder, the Kd [2] was ~30.6 nM, the koff [3] was 0.00333 s⁻¹ and the kon [3] was 2.84e+06 M⁻¹ s⁻¹. For the same binder, the Kd [4] was 1.4 nM, the Kd [5] was 20 to 30 nM and the “IC50 (read off the curve); lysis of rabbit red blood cells in 10% normal human serum” value [6] was ~80 nM. The Kd [7] was 41.6 nM, the koff [7] was 0.00294 s⁻¹ and the kon [7] was 70600 M⁻¹ s⁻¹. It also gave a Kd [8] of 22.7 nM, a koff [8] of 0.0039 s⁻¹ and a kon [8] of 172000 M⁻¹ s⁻¹. It also gave a Kd [9] of ~24.9 nM, a koff [10] of 0.00338 s⁻¹ and a kon [10] of 136000 M⁻¹ s⁻¹. The Kd [11] was 22.4 nM, the koff [11] was 0.00352 s⁻¹ and the kon [11] was 157000 M⁻¹ s⁻¹.

From patent US20150166643A1 (Alexion, published 2015)
